Assay results as given in IntAct's records for PubMed 9355745.

B1: Tyrosine-protein phosphatase non-receptor type 1 (Homo sapiens), P18031 (parent)
chain: MEMEKEFEQIDKSGSWAAIYQDIRHEASDFPCRVAKLPKNKNRNRYRDVSPFDHSRIKLHQEDNDYINASLIKMEEAQRSYILTQGPLPNTCGHFWEMVWEQKSRGVVMLNRVMEKGSLKCAQYWPQKEEKEMIFEDTNLKLTLISEDIKSYYTVRQLELENLTTQETREILHFHYTTWPDFGVPESPASFLNFLFKVRESGSLSPEHGPVVVHCSAGIGRSGTFCLADTCLLLMDKRKDPSSVDIKKVLLEMRKFRMGLIQTADQLRFSYLAVIEGAKFIMGDSSVQDQWKELSHEDLEPPPEHIPPPPRPPKRILEPHNGKCREFFPNHQWVKEETQEDKDCPIKEEKGSPLNAAPYGIESMSQDTEVRSRVVGGSLRGAQAASPAKGEPSLPEKDEDHALSYWKPFLVNMCVATVLTAGAYLCYRFLFNSNT

Variants of: B1
Conditions: with pgfrb_human PDGFRB

Variant | effect of a mutation on the interaction
MEMEKEFEQIDKSGSWAAIYQDIRHEASDFPCRVAKLPKNKNRNRYRDVSPFDHSRIKLHQEDNDYINASLIKMEEAQRSYILTQGPLPNTCGHFWEMVWEQKSRGVVMLNRVMEKGSLKCAQYWPQKEEKEMIFEDTNLKLTLISEDIKSYYTVRQLELENLTTQETREILHFHYTTWPDFGVPESPASFLNFLFKVRESGSLSPEHGPVVVHSSAGIGRSGTFCLADTCLLLMDKRKDPSSVDIKKVLLEMRKFRMGLIQTADQLRFSYLAVIEGAKFIMGDSSVQDQWKELSHEDLEPPPEHIPPPPRPPKRILEPHNGKCREFFPNHQWVKEETQEDKDCPIKEEKGSPLNAAPYGIESMSQDTEVRSRVVGGSLRGAQAASPAKGEPSLPEKDEDHALSYWKPFLVNMCVATVLTAGAYLCYRFLFNSNT [C215S] | increasing interaction
